In the domain aggregation screens of Martell et al. (2025):

Test: soluble fraction after stress (log2 fold change); higher = more stays soluble; pooled small domains, quantitative proteomics
Details: stress: 50 degC
Outline: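 After stress at 50°C, the amount of each protein still soluble was measured. This was done on pooled custom libraries of small protein domains, using high-throughput quantitative proteomics. The figure given is a base-two log fold change and stands for aggregation propensity, with higher values meaning more protein stays in solution.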

## HMPQKSDLTMEEYNKLGLAGGSGSRKLREQVGIRLSVGYGNSKQFYNRLHTFGISLDELKTAVEEVKNG
  soluble fraction (log2): -0.117

## HMGELYGTDQYKDGDAQDTNIGKLLEVNIDGKWQVATTGTSRFEFAGVMDDNGHKLIMISVLPEAKTV
  soluble fraction (log2): -0.18

## HMNPGAYQVKAGEGLIGLSRRYNVPVDVLASVNNLNTTSSLRVGQTITIPTAAQVNRITQQAQ
  soluble fraction (log2): 0.287

## HMRDQARQFFIDTWAKFQRHDALTPLEEKTAAIIALHPEYHRVLQNPESFITTDWRPESGDINPFMHL
  soluble fraction (log2): -1.34

## HMDAYDEVTTLSQMVASGKNTTVAHLKHLKEYHQTDYLRQAVEWLLSNRKNVSFSVDEVMQEVHN
  soluble fraction (log2): -0.0339

## HMAPPIQQQVESLMNSFAKIGVTVPMLESRLQHAMSAVTANELVMLRKIGASIRDGFATVAEQFPA
  soluble fraction (log2): 0.0539

## HMSQLLHELLAHVLKDRIISGEWPAGSRIMSEHALQERYGVSRGTVRRALAQLVQEGLLVQRKGKGTFVTR
  soluble fraction (log2): -1.65

## HMRDISTDTSAWTFQDIKRYYDPQDLLTEKQVGQALSLIKGRNLNPLLNEVYIVAYKKKNGGAEFSLIV
  soluble fraction (log2): -0.28

## HMIDAHTTLLAKRLESKGFLALTDKSSAEEIYEEFGISKKAFKKALGALYKERLVRIGEDGVVWM
  soluble fraction (log2): -1.43

## HMKGSIFLDEATKMVDNSALKSLNTFLEEYARETNNQIFLISHQETPAEVTQIKLKKVGGETSYE
  soluble fraction (log2): 0.124

## HMVPFISVTPTSLSFAKGGESKTVDIEASGAFSVGKVPTGFNLEVVNGRITITADANTGAARNGSVEFILA
  soluble fraction (log2): -0.0614

## HMSVTRELMLVKVKVTPEQRAGVSAIVDIFRANIIDVGKESMIIELTGNKSKLEAFIDLLDGYEILELART
  soluble fraction (log2): -0.861

## HMNVDSLIGQTARVIVDINNNDSIGYALVGGQEWTARAENDNDIIPKDTLVEIVGVSGVKLIVRRKE
  soluble fraction (log2): -0.044

## HMDSLNWVEKIINTLPEQQRLIIQMRDIEQYEFAEIAKILEMNETAIRVALSRARKTIREFMIKTH
  soluble fraction (log2): -1.07

## HMEEGKVKRMAMDMVDAFYDKVSAMVDDNNDLGRSVVDAWDDEEENPPEYMLDDETRAILVNAGKIEPE
  soluble fraction (log2): 0.0748

## HMDVALEALDESDGAVRLQFSGALQTYLNDSTTAASLEAISKTFRAFYEAAGRPVDTLEVYAAGEPVT
  soluble fraction (log2): 0.06

## HMNSNTIIFSQFLSEVDNGRVTQVQIQGNNIKGTLSNGKDFITYAPNDPNLIEKLTSKGVSISASPID
  soluble fraction (log2): 0.0608

## HMLPYGDRRRHTDNTISRIRELAAALDDSGIADRLNQDGYVTPEGKPFTYAGVRWIRYKYDISGPYERN
  soluble fraction (log2): -1.5

## HMDMSVDQFNQGIRGSELYQQFIHGRGLQQPDGKTREWTDADRNAWRRTLEASGVRIPDGMKIDNAGNLNE
  soluble fraction (log2): 0.275

## HMGHTVHAVPEAADRQRLDVFVGNLHPTISRAYIQKLSKEDQILVNGKPEKAGFKLRTGHSVSVPDMSE
  soluble fraction (log2): 0.0769

## HMGGNKILTWKTDAATTRNQVPINERKEGLEISYKNEERNWVAEKYVGTSFSDDKWGVDYNWNQD
  soluble fraction (log2): 0.421

## HMIEEIPYSQFMSMLEEGKIDKAEIYQDSIIFSTKPDEQGKAGYYSIAYMKDNVLADRLYDAGVEFTPII
  soluble fraction (log2): -0.156

## HMNKRKQRINDLMDLIREQPALSIKNLAEMLNVSEMTIRRDMAYLKSNNLLNRAHGMNFLNS
  soluble fraction (log2): 0.0812

## HMFPASQPVPTDLNQIVRAGLEVFSGRLEGIDVRVSLEPELPRVNVDPEHFKRIVVNLVDNAAEAMQNS
  soluble fraction (log2): -0.0549

## HMGSLPPPKDGTTIYVVKPGDSLWRISGKFFGNPLFWPRLWEINPNIDNPNKIYPGDVISLKP
  soluble fraction (log2): 0.00421

## HMGTTKGVVDVTVPNGRASQHVKLVVIDDDGGRVVYDGTNAPGDRIVKSVSGSGNVRVQIYLNNALVQEQS
  soluble fraction (log2): -0.2

## HMNPMLEPAGEIRLSDGVLLRWQSERLPGDDTVRGPGSLYELGLYRVKVRVSAPQQGVRESSVELAGWRQV
  soluble fraction (log2): -0.0771

## HMTNADRFIGEEAMVIKKIDDINNDGQVKIAGQVWSAVSEDKSPLEEGTIVKVIAIRGVKLVVEPVS
  soluble fraction (log2): 0.0662

## HMGLVQQSAQKSDDAAKLMAANNLNAAQSKYQLPDEAEKDFFTFAFERGYAVEDFVDAGLVDKIMADFSA
  soluble fraction (log2): -0.078

## HMPDLSAEERNIVEALQKSNDLQVNLIAVKTGMDMGTLSATLFGLEMKGLVKLMAGGTYHLI
  soluble fraction (log2): -0.141

## HMTGAEGKLARYLLTVPSGEPLRLSATDLAKRLGISRASLYRAFQALEDARLIRREGKSMYVLDPAGLEGV
  soluble fraction (log2): -0.289

## HMPATPDATVQAVQQRLNELGYDVGSADGLMGRGTRSAIIAFQQDRGLAATGVADQALLLQLQP
  soluble fraction (log2): 0.208

## HMADKSLLELPGLDGDKVSALVTAGVRNVNDLADLATDELVEKTGFDEKTAADLIIAARAVVY
  soluble fraction (log2): 0.331

## HMFPDLTEDEQLIVDVLQRTGDLQINSLIVEANIPVNKMSEILFELEMKGVIRTLAGGVYQLL
  soluble fraction (log2): -1.46

## HMKIKKIWFDGDYIYGMDERNNTYRQSLLWYSKLRNASAEERERYTFSTIGIHWRELDEDVSFESF
  soluble fraction (log2): -3.14

## HMGIAKLLTEQEYKIALLAAERRTNAMIAEEMNLTENTVKTHLKHIFDKVGIAGNAKNKRHLLADMMNSER
  soluble fraction (log2): -0.277

## HMASALDVALNDFAEMRKKMRKPLTDRALALTLSELEKLAPGNDEKKIAILNQSIQRGWQGVFPLK
  soluble fraction (log2): -0.162

## HMEKYIVNQEEQGKRLDIYVVNKSSELTRTAVQRLIEQEHILVNGRKQKASYKVLEGDIITIERV
  soluble fraction (log2): 0.573

## HMPLDPFVVDALRDEIINTIKQHEPRVDLQKVQVQPIYTQNRVNISVQYKIVGLPIVEDITFVLQRP
  soluble fraction (log2): -0.0764

## HMNIMNINQALNVLNLKGTVSKEELAKAYKKMAIKYHPDRNPTGVEMMKVINSAYEFLKGLNLEEIKH
  soluble fraction (log2): 0.256

## HMDQPLIEPLSERELEVLSLIAAGYSNAEIAERLVIAVGTVKRHINNLYGKLGAGSRTQALAIAREIGLM
  soluble fraction (log2): 0.0589

## HMSDRLRLGRRIRAARLEQNLSQAALAERLGISASYLNLLEHDRRSLTTVLLLKLAQVLGLELRDLAAG
  soluble fraction (log2): -1.99

## HMALPDSEKRQWLVDEVNERGLKLPDDVLEYLFARVGRSQAHLVDVIEKLDFESLAQSRKLTIPFVREVLK
  soluble fraction (log2): -0.152

## HMDSNPLSEREQEVLQLVAKGASNQTIAEQLFLSNGTIRNYMTAIFNKLNANNRTDAVRIARENGW
  soluble fraction (log2): -0.144

## HMRMTPRQALDDLIREREETYAAVSRLLGRNTAYIQQYIKRGTPARLDQSDIAQLALHFDVPAKLLGGKE
  soluble fraction (log2): -0.943

## HMLRGKNALMSQLDQIQGIGPKRKRALFNHFLTLDAIKQADVETLRQAPGMNLPAAEQVYRHFHM
  soluble fraction (log2): 0.0637

## HMETLKLRDSGKEVQSLQELLQRQGLSAPMNGIFDEATKSSVIAFQKANGLDADGIVGYKSWETLFTAG
  soluble fraction (log2): 0.132

## HMIHSEEIQDHIFVKQLGEVFLRNHINYENIMKSWDDHTNVIKRFRRYPHRNKILNRESTIDEISFLKE
  soluble fraction (log2): -0.0665

## HMIILYTDEQQRIIDRLNEFIGEQPSQNEAAKLLGISAPILTNLRKGTYTGTVDKFMNKLAAYFNIKADLG
  soluble fraction (log2): -1.05

## HMTKEEFLDEIKKELGFMPYEEVIKAEKYFESYFNGSEADEKVIERFGSPKYAAQNYYRTHVAN
  soluble fraction (log2): -0.0965

## HMSDNLSASERKALSHMEGMESVRSSEVADLLGMSQRGAQKLLNRLVDKGLASSFGANRNRRYSVE
  soluble fraction (log2): 0.306

## HMYSIDNPPDWLKNLPKGAIRIGVEVFNQVLSKADDEDRARMAAWSAIKAKYEKADDGQWQPKAA
  soluble fraction (log2): -0.0798

## HMRLSPTMVETLIAMLNRNAYPAYENNSRTFASLEERGLIQPDIEGNWSLTDTGHQTALKLLK
  soluble fraction (log2): 0.0915

## HMVVRRLPFGFSKRFGVLVVPGTSNPVELLYREDASMQSLLEARRVVAQPVAFKKTDVESFNAQLARAHEN
  soluble fraction (log2): -1.23

## HMIEGETPEQTMERVSKDPEIVQILQDPVMQGILAQARENPAALQDHMKNPEVYKKINMLIAAGVIRT
  soluble fraction (log2): 0.0669

## HMLENYEGFKQKILKLTGIDLSSYKERQMRRRIDSLIHRNNYDDYDEYFKALTQNSNLYDEFINYLTI
  soluble fraction (log2): -0.539

## HMTGLSNFEFNQIKLDLMHELTQTPLRLTDLVNRITSFENEKTITVIRFLVDEGILLLKDDTLSVAKID
  soluble fraction (log2): -0.542

## HMTETELYDEVNRLIGLHLSERDRMILIMRDRDEFEIDAIAARTGLSEGNIRLILSRARRTVREAYRNNI
  soluble fraction (log2): -3.74

## HMVSLPSPLAGKVVSLTVQAGQEVKEGDEIMVLEAMKMNTQVHAPSSGRILALRVQPGDQVEEGQTLVTMG
  soluble fraction (log2): 0.0826

## HMDFMNSEIKKIVEDLKLTLQSLNYTKNEIKSILPVINKETDNLIKKEKYASFENLLRLAMNHLDNN
  soluble fraction (log2): -0.462

## HMIDFTHEDIERLWNAIVHYVPERQKSDMAIDFIKSLEDIGVEHDEIKASAEYDPKLEEAINTVY
  soluble fraction (log2): -0.352

## HMFEDYNELDEYLETRFIPTYVLLKQRKNANGEIDHFPSIRLQHIMALKLSEAELEHVMNYLKEKNIRVG
  soluble fraction (log2): -0.325

## HMTSRFITTEEGTLYVDADGRKVSGWQTIDGSRYYFDEHGIRQSGTIEVNGETYVLDEDGVL
  soluble fraction (log2): 0.0747

## HMEPESTMIEISETLTNERLDRYLATKLPNVSRGGIQRLLREGNILVNGKKAKPTQHPVAGQKIEITWPNP
  soluble fraction (log2): 0.0857

## HMLSNLYAVLGVGRRATPDEITAAFDAWNARADAGEPIDDPLWERVRYAWDVLSSPSRRDLYDSLVDDATG
  soluble fraction (log2): -1.71

## HMGETRWTYDDFGNILTEKAAPYSATEFLGKTYTYDTDNRYLKTVTDALGRTTTTLSYDKYGNPLSVMD
  soluble fraction (log2): 0.101

## HMKTMAVYPVGTRVLTSDGEIGVVEKQNSEAPERPVIKILKGADGHDYEKPDFKDLMKILTLFIVDTI
  soluble fraction (log2): 0.298

## HMKVSNWYFNGAPSATTPPTSQWTTEKDKKAHIGDTFTSLDKSPSPNAGKSWRYTPSYTWEEIV
  soluble fraction (log2): 0.344

## HMEDMMKALLDVVRAQHTATEGSEERPFDINDIIDMALNITGRPEEPEEQQELSDTIQKLAESLAPDIFP
  soluble fraction (log2): -0.356

## HMSATVLVHVLGEVRKPGVVSLPEGSRVQDAITAAGGLTSRAKPGDLNLAARVSDGAQLVIGRSGSQVRTT
  soluble fraction (log2): -0.0286

## HMGEQLALLERARTLLEDETLETEVQKELEMLLEDIEAARAEANATQLEDLFEELADLLFDLE
  soluble fraction (log2): -0.0786

## HMSVDEVEALYLKIAEDRLEGKLPDKVSESDLMRRYGLTKAQLGAILQRIVHEGWIERTPGHGWRFLPIL
  soluble fraction (log2): -0.259

## HMFTYEETIGKSADVYLTIPALKAGKGKIIISVRGSVHELDAMTNNAEKISTGAVVKIVRIEHGNILLVEN
  soluble fraction (log2): -1.63

## HMVAMGQRVVPLTHLSIDDVRRLLESTYGKDSGIEVTKPGTAAKGVIVTAPRTELDGIVALVKQA
  soluble fraction (log2): 0.0987

## HMAKIATTVYEQIRTAILNGELSNSERLVEEDLAVSMGISRTPVREALRRLAAEGLVDVSPNRGARVAE
  soluble fraction (log2): -0.293
